Test results: patent publication US20180057601A1 (PIERRE FABRE MEDICAMENT, published 2018)

How the values were obtained:
[1] = molecular target: ADAM17 at the plasma membrane of A431 cells (human, UniProt P78536 215-824); assay: cell-based or functional assay
Peptide_006 = molecular target: T1, Peptide_006; assay: peptide microarray: immobilized 15-mer peptides, Cy5 anti-human IgG; signal as ratio to control antibody ch9G4
T1 construct: immobilized on the microarray
T1 peptide: IPFCEREQQLESCAC
Procedure: (§1) Peptide micro array epitope characterization was performed by JPT Peptide Technologies GmbH, Berlin, Germany. In brief the analysis was performed as follows: 32-linear 15-meric peptide sequences representing an overlapping peptide scan (15/12) through the ADAM17 membrane proximal domain were synthesized (Table 5) and immobilized on microarray slides four additional peptides were included by JPT as internal process control spots. Moreover, human IgG and mouse IgG were co-immobilized on the microarray to serve as assay controls. Furthermore, rhADAM17 protein was co-immobilized as an additional control.
(§2) The assay was performed using a Multiwell incubation chamber. Microarrays were incubated with 100 μg/ml 1022C3 or control antibody ch9G4 diluted in blocking buffer (Pierce International, Superblock TBS T20, order No 37536) overnight at 4° C. Microarrays were then incubated with 1 μg/ml Cy5 labelled secondary antibody (anti-human IgG, JIR, 109-175-098) diluted in blocking buffer for 60 min at 30° C. Microarrays were dried. Before each step microarrays were washed with washing buffer (50 mM TBS-buffer, 0.1% Tween20 (v/v), pH 7.2).
(§3) Microarrays were scanned using a high resolution fluorescence scanner. Laser settings and applied resolution were identical for all performed measurements. The resulting images were analyzed and quantified using spot-recognition software GenePix (Molecular Devices). For each spot, the mean signal intensity was extracted (between 0 and 65535 arbitrary units). The ration of signal intensity between 1022C3 and the control antibody ch9G4 was compared between multiple experiments and peptides with a signal three fold higher 1022C3 than ch9G4 were identified (FIG. 3).

Peptide_011 = molecular target: T2, Peptide_011; assay: as above
T2 construct: immobilized on the microarray
T2 peptide: NETDNSCKVCCRDLS
Procedure: as §1, §2, §3

Peptide_031 = molecular target: T3, Peptide_031; assay: as above
T3 construct: immobilized on the microarray
T3 peptide: DFIDQLSINTFGKFL
Procedure: as §1, §2, §3

Peptide_025 = molecular target: T4, Peptide_025; assay: as above
T4 construct: immobilized on the microarray
T4 peptide: DMNGKCEKRVQDVIE
Procedure: as §1, §2, §3

Peptide_010 = molecular target: T5, Peptide_010; assay: as above
T5 construct: immobilized on the microarray
T5 peptide: CACNETDNSCKVCCR
Procedure: as §1, §2, §3

Peptide_005 = molecular target: T6, Peptide_005; assay: as above
T6 construct: immobilized on the microarray
T6 peptide: GKCIPFCEREQQLES
Procedure: as §1, §2, §3

Peptide_030 = molecular target: T7, Peptide_030; assay: as above
T7 construct: immobilized on the microarray
T7 peptide: RFWDFIDQLSINTFG
Procedure: as §1, §2, §3

Peptide_008 = molecular target: T8, Peptide_008; assay: as above
T8 construct: immobilized on the microarray
T8 peptide: EQQLESCACNETDNS
Procedure: as §1, §2, §3

Peptide_028 = molecular target: T9, Peptide_028; assay: as above
T9 construct: immobilized on the microarray
T9 peptide: VQDVIERFWDFIDQL
Procedure: as §1, §2, §3

Peptide_023 = molecular target: T10, Peptide_023; assay: as above
T10 construct: immobilized on the microarray
T10 peptide: CTVGFCDMNGKCEKR
Procedure: as §1, §2, §3

Peptide_024 = molecular target: T11, Peptide_024; assay: as above
T11 construct: immobilized on the microarray
T11 peptide: GFCDMNGKCEKRVQD
Procedure: as §1, §2, §3

Peptide_032 = molecular target: T12, Peptide_032; assay: as above
T12 construct: immobilized on the microarray
T12 peptide: IDQLSINTFGKFLAD
Procedure: as §1, §2, §3

Peptide_007 = molecular target: T13, Peptide_007; assay: as above
T13 construct: immobilized on the microarray
T13 peptide: CEREQQLESCACNET
Procedure: as §1, §2, §3

Peptide_027 = molecular target: T14, Peptide_027; assay: as above
T14 construct: immobilized on the microarray
T14 peptide: EKRVQDVIERFWDFI
Procedure: as §1, §2, §3

Peptide_001 = molecular target: T15, Peptide_001; assay: as above
T15 construct: immobilized on the microarray
T15 peptide: DTVCLDLGKCKDGKC
Procedure: as §1, §2, §3

Peptide_015 = molecular target: T16, Peptide_015; assay: as above
T16 construct: immobilized on the microarray
T16 peptide: DLSGRCVPYVDAEQK
Procedure: as §1, §2, §3

Peptide_018 = molecular target: T17, Peptide_018; assay: as above
T17 construct: immobilized on the microarray
T17 peptide: VDAEQKNLFLRKGKP
Procedure: as §1, §2, §3

Peptide_021 = molecular target: T18, Peptide_021; assay: as above
T18 construct: immobilized on the microarray
T18 peptide: LRKGKPCTVGFCDMN
Procedure: as §1, §2, §3

Peptide_029 = molecular target: T19, Peptide_029; assay: as above
T19 construct: immobilized on the microarray
T19 peptide: VIERFWDFIDQLSIN
Procedure: as §1, §2, §3

Peptide_019 = molecular target: T20, Peptide_019; assay: as above
T20 construct: immobilized on the microarray
T20 peptide: EQKNLFLRKGKPCTV
Procedure: as §1, §2, §3

Peptide_009 = molecular target: T21, Peptide_009; assay: as above
T21 construct: immobilized on the microarray
T21 peptide: LESCACNETDNSCKV
Procedure: as §1, §2, §3

Peptide_022 = molecular target: T22, Peptide_022; assay: as above
T22 construct: immobilized on the microarray
T22 peptide: GKPCTVGFCDMNGKC
Procedure: as §1, §2, §3

Peptide_004 = molecular target: T23, Peptide_004; assay: as above
T23 construct: immobilized on the microarray
T23 peptide: CKDGKCIPFCEREQQ
Procedure: as §1, §2, §3

Peptide_026 = molecular target: T24, Peptide_026; assay: as above
T24 construct: immobilized on the microarray
T24 peptide: GKCEKRVQDVIERFW
Procedure: as §1, §2, §3

Peptide_012 = molecular target: T25, Peptide_012; assay: as above
T25 construct: immobilized on the microarray
T25 peptide: DNSCKVCCRDLSGRC
Procedure: as §1, §2, §3

Peptide_016 = molecular target: T26, Peptide_016; assay: as above
T26 construct: immobilized on the microarray
T26 peptide: GRCVPYVDAEQKNLF
Procedure: as §1, §2, §3

Peptide_014 = molecular target: T27, Peptide_014; assay: as above
T27 construct: immobilized on the microarray
T27 peptide: CCRDLSGRCVPYVDA
Procedure: as §1, §2, §3

ADAM17 at the plasma membrane of A431 cells, sequence (P78536 215-824 limits assumed): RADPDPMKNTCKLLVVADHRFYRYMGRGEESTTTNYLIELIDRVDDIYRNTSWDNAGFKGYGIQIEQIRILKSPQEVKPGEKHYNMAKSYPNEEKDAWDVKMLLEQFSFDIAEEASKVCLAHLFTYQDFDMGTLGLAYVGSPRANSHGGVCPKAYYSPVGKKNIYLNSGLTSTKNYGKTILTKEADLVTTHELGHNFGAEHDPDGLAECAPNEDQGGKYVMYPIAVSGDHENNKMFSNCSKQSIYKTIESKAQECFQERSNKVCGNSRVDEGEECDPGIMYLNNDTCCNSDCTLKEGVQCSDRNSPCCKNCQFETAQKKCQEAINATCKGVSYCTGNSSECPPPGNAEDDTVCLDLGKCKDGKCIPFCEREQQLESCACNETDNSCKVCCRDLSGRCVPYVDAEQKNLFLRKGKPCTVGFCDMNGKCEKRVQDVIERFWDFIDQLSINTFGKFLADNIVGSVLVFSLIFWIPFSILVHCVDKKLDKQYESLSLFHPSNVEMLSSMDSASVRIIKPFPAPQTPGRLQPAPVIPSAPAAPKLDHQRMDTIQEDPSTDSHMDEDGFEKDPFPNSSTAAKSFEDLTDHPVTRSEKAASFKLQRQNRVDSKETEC

B1: hz1022C3 (antibody, V domains shown)
VH: QVQLQESGPGLVKPSETLSLTCTVSGFSLDTSGMGVSWIRQPAGKGLEWIGHIYWDDDKRYNPSLKSRVTMSKDTSSNQVSLKLSSVTAADTAVYYCARRSHFGNYYYAMDYWGQGTTVTVSS
VL: DIQMTQSPSSLSASVGDRVTITCRASQDISSYLNWYQQKPGKAPKLLIFYTSRLQSGVPSRFSGSGSGTDFTLTISSLQPEDFATYYCQQGKTLPLTFGGGTKVEIK
notes: also called mAb hz1022C3; anti-ADAM17 mAb (hz1022C3)
IC50 of inhibition of cellular shedding of (mutated pro-)TNFα-Nluc [1]: 0.16 nM | IC50 of inhibition of cellular shedding of AREG-Nluc from A431 cells [1]: 0.16 nM | IC50 of inhibition of cellular shedding of HB-EGF-Nluc from A431 cells [1]: 0.19 nM | IC50 of inhibition of cellular shedding of TGFα-Nluc from A431 cells [1]: 0.12 nM | IC50 of inhibition of cellular shedding, mean of the four substrates [1]: 0.16 nM | binding result (Peptide_006): no binding (tested: 100 µg/ml) | binding result (Peptide_011): no binding (tested: 100 µg/ml) | binding result (Peptide_031): no binding (tested: 100 µg/ml) | binding result (Peptide_025): no binding (tested: 100 µg/ml) | binding result (Peptide_010): no binding (tested: 100 µg/ml) | binding result (Peptide_005): no binding (tested: 100 µg/ml) | binding result (Peptide_030): no binding (tested: 100 µg/ml) | binding result (Peptide_008): no binding (tested: 100 µg/ml) | binding result (Peptide_028): no binding (tested: 100 µg/ml) | binding result (Peptide_023): no binding (tested: 100 µg/ml) | binding result (Peptide_024): no binding (tested: 100 µg/ml) | binding result (Peptide_032): no binding (tested: 100 µg/ml) | binding result (Peptide_007): no binding (tested: 100 µg/ml) | binding result (Peptide_027): no binding (tested: 100 µg/ml) | binding result (Peptide_001): no binding (tested: 100 µg/ml) | binding result (Peptide_015): no binding (tested: 100 µg/ml) | binding result (Peptide_018): no binding (tested: 100 µg/ml) | binding result (Peptide_021): no binding (tested: 100 µg/ml) | binding result (Peptide_029): no binding (tested: 100 µg/ml) | binding result (Peptide_019): no binding (tested: 100 µg/ml) | binding result (Peptide_009): no binding (tested: 100 µg/ml) | binding result (Peptide_022): no binding (tested: 100 µg/ml) | binding result (Peptide_004): no binding (tested: 100 µg/ml) | binding result (Peptide_026): no binding (tested: 100 µg/ml) | binding result (Peptide_012): no binding (tested: 100 µg/ml) | binding result (Peptide_016): no binding (tested: 100 µg/ml) | binding result (Peptide_014): no binding (tested: 100 µg/ml)
